Reference: publication PMC9800282 (Nature Medicine, 2022)

What was measured:
[1] = target: T1, recombinant human αvβ3 integrin (human, UniProt P06756 31-1048; P05106 27-718); test: SPR; Biacore T200; LNA043 (~3,000 RU), FN1 or VTN (~500 RU) amine-coupled to CM5; integrins as analytes 0.6–10 μM, single-cycle kinetics, 37 °C, 1× HBS-N, 0.005% Tween 20, 1 mM MgCl2, 1 mM CaCl2, 2 mM MnCl2; 1:1 binding fit; conditions: both partners purified
T1 construct: integrin αv subunit, human, recombinant; integrin β3 subunit, human, recombinant; also called rhαvβ3; integrin αvβ3; source: bought: R&D Systems (co-IP)
T1 sequence (P06756 31-1048, chain 1 of 2): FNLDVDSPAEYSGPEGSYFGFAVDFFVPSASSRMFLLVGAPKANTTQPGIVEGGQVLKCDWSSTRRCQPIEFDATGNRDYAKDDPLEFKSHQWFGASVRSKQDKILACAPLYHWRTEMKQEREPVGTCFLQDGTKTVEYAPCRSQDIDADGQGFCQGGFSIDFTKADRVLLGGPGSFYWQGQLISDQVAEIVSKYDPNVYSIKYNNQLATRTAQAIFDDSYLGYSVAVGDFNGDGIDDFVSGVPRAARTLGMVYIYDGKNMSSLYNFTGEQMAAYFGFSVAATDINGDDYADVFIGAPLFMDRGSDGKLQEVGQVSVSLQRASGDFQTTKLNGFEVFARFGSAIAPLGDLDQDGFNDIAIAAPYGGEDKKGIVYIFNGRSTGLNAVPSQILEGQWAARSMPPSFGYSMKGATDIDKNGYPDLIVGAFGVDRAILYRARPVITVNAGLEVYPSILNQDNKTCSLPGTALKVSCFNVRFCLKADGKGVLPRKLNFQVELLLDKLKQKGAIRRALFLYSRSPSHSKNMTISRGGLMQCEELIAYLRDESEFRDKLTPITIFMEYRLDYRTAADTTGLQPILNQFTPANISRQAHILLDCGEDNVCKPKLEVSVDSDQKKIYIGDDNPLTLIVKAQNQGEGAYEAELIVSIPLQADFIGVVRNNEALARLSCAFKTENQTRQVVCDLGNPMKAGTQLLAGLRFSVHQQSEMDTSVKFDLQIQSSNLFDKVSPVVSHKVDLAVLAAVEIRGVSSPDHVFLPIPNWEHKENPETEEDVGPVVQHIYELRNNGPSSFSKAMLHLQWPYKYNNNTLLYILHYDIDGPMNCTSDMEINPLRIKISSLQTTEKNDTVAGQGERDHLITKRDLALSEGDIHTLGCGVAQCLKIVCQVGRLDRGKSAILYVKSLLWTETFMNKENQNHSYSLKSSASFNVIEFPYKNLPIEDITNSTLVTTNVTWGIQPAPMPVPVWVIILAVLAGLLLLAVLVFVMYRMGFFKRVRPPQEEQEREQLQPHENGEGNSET
T1 sequence (P05106 27-718, chain 2 of 2): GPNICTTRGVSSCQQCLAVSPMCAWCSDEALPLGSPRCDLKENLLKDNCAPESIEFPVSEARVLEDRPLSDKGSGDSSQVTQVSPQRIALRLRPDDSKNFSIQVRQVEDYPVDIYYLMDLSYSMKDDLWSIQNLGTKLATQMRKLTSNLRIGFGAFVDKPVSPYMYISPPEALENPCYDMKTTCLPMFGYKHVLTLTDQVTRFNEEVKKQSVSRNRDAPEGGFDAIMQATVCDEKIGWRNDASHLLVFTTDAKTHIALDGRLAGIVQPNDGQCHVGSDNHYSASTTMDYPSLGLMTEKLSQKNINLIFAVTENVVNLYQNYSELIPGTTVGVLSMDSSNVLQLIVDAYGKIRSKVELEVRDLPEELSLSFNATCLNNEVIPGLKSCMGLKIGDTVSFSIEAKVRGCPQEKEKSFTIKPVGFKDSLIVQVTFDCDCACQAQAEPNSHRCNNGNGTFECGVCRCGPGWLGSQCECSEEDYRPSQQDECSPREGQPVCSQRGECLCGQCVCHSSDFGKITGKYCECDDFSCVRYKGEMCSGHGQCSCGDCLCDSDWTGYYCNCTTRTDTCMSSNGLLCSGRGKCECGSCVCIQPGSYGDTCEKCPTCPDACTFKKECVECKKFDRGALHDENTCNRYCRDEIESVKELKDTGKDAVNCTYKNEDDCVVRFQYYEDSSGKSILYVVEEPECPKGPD

[2] = target: T2, recombinant human α5β1 integrin (human, UniProt P08648 42-1049; P05556 21-728); test: as above; conditions: both partners purified
T2 construct: integrin α5 subunit, human, recombinant; integrin β1 subunit, human, recombinant; also called rhα5β1; integrin α5β1; source: bought: R&D Systems (co-IP)

B1: LNA043 (domain or fragment)
chain: IPAECTTIYNRGEHTSGMYAIRPSNSQVFHVYCDVISGSPWTLIQHRIDGSQNFNETWENYKYGFGRLDGEFWLGLEKIYSIVKQSNYVLRIELEDWKDNKHYIEYSFYLGNHETNYTLHLVAITGNVPNAIPENKDLVFSTWDHKAKGHFNCPEGYSGGWWWHDECGENNLNGKYNKPRAQSKPERRRGLSWKSQNGRLYSIKSTKMLIHPTDSESFE
Kd [1]: ~7.9 µM | Kd [2]: ~1.5 µM
